According to the supplement of paper PMC10065799, “High-throughput profiling of sequence recognition by tyrosine kinases and SH2 domains using bacterial peptide display” (eLife, 2023):

Tests used:
[1] = tested on: AncSZ; assay: phosphorylation enrichment, bacterial display (enrichment ratio); higher = better substrate or ligand; peptides without Tyr show the background
[2] = biological target: EPHB1 (UniProt P54762); assay: as above
[3] = biological target: EPHB2 (UniProt P29323); assay: as above
[4] = biological target: FGFR1 (UniProt P11362); assay: as above
[5] = biological target: FGFR3 (UniProt P22607); assay: as above
[6] = tested on: Fer (mouse); assay: as above
[7] = biological target: Fes (UniProt P07332); assay: as above
[8] = biological target: Fyn (UniProt P06241); assay: as above
[9] = biological target: Hck (UniProt P08631); assay: as above
[10] = biological target: Jak2 (UniProt O60674); assay: as above
[11] = biological target: MERTK (UniProt Q12866); assay: as above
[12] = tested on: c-Abl (mouse); assay: as above
[13] = tested on: c-Src; assay: as above
[14] = biological target: Grb2 SH2 (UniProt P62993); assay: SH2 binding enrichment of the phosphorylated peptide, bacterial display (enrichment ratio); higher = better substrate or ligand; peptides without Tyr show the background
[15] = biological target: SHP2-C SH2; assay: as above
[16] = biological target: c-Src SH2; assay: as above
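Throughout, for SH2 binding enrichment of the phosphorylated peptide, bacterial display: peptide library displayed on the E. coli surface as eCPX fusions, selected cells deep-sequenced, score is each peptide's frequency after selection divided by its frequency in the input.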
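Throughout, for phosphorylation enrichment, bacterial display: 11-residue human phosphosite peptides and single-mutation variants displayed on the E. coli surface, counted by deep sequencing, each peptide's frequency after selection divided by its frequency in the unselected input library; frequency after pTyr selection over input frequency; kinase dosed for 20-30% of maximal phosphorylation in three min.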

Chain of FGFR3 (P22607 whole entry, looked up): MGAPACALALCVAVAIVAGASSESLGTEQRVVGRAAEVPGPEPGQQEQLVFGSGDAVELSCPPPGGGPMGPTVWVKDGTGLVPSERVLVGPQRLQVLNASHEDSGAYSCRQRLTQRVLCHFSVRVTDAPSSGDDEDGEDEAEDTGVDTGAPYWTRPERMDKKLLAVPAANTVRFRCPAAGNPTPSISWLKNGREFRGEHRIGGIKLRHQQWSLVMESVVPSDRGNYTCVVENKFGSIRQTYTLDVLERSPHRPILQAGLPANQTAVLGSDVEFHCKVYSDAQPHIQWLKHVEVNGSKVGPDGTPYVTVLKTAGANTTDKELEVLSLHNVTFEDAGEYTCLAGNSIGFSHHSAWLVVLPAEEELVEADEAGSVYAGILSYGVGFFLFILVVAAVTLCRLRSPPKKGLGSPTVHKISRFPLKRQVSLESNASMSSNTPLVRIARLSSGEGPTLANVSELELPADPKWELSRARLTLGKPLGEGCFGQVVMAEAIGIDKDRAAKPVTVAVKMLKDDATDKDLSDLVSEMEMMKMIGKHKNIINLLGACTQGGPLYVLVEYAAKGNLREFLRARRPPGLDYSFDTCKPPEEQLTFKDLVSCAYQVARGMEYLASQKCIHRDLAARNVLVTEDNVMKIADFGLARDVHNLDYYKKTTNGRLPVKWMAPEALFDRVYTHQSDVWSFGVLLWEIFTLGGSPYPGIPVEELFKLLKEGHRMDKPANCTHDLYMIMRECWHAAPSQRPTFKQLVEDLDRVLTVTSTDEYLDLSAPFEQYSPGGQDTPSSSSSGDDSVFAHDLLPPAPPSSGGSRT
Chain of Hck (P08631 whole entry, looked up): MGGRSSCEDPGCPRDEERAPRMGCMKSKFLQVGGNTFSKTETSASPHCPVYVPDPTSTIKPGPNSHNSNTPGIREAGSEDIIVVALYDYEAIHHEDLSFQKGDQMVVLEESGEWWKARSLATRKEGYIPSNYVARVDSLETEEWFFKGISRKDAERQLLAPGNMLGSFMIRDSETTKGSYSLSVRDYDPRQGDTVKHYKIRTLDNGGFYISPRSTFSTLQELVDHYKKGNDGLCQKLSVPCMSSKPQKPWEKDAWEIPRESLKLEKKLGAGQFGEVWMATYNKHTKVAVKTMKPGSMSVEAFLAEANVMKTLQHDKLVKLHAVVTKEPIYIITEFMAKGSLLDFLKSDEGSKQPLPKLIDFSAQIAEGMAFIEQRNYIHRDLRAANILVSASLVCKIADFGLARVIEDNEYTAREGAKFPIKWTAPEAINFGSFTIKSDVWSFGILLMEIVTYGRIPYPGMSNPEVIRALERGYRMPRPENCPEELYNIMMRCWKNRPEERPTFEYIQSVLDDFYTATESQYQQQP
Chain of Fyn (P06241 whole entry, looked up): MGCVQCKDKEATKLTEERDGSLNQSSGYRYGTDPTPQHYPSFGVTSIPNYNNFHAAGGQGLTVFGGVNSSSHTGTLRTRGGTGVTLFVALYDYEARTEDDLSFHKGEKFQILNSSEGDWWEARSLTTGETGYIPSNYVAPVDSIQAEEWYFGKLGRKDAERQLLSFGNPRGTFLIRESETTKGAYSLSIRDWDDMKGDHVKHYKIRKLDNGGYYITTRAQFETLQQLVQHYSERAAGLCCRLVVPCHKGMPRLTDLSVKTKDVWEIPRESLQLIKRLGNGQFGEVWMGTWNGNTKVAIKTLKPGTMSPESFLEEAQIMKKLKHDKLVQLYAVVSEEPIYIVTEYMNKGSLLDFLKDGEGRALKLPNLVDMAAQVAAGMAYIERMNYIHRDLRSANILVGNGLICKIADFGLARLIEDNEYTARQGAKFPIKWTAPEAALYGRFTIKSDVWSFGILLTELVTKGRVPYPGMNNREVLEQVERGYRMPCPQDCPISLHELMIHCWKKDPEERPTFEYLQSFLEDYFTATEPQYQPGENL
Chain of EPHB2 (P29323 whole entry, looked up): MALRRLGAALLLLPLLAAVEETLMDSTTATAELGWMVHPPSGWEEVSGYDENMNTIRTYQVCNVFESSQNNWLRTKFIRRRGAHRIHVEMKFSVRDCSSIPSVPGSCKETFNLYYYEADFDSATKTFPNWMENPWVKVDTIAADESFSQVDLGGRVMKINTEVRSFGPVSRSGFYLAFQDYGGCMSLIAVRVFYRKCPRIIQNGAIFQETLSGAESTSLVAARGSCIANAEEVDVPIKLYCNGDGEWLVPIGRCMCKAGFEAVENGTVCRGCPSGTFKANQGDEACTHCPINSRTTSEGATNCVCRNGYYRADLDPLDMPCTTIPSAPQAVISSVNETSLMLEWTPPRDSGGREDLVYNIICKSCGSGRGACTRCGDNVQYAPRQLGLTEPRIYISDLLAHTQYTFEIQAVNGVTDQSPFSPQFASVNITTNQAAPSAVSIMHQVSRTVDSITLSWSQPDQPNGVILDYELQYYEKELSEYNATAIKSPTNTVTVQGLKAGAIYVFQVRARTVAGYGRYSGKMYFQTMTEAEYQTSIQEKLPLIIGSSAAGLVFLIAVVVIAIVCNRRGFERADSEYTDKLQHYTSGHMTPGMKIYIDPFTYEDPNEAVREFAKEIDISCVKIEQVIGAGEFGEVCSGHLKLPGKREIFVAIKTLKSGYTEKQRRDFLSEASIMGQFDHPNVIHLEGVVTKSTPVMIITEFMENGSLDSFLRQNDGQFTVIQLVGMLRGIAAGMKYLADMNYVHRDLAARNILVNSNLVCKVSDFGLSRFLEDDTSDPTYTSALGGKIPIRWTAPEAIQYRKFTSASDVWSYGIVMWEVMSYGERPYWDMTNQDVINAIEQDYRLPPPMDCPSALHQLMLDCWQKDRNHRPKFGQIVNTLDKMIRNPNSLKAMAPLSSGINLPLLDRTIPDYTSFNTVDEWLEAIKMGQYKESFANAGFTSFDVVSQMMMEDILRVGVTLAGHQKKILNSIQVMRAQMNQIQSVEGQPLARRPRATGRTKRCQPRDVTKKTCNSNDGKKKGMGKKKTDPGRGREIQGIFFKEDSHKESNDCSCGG
Chain of EPHB1 (P54762 whole entry, looked up): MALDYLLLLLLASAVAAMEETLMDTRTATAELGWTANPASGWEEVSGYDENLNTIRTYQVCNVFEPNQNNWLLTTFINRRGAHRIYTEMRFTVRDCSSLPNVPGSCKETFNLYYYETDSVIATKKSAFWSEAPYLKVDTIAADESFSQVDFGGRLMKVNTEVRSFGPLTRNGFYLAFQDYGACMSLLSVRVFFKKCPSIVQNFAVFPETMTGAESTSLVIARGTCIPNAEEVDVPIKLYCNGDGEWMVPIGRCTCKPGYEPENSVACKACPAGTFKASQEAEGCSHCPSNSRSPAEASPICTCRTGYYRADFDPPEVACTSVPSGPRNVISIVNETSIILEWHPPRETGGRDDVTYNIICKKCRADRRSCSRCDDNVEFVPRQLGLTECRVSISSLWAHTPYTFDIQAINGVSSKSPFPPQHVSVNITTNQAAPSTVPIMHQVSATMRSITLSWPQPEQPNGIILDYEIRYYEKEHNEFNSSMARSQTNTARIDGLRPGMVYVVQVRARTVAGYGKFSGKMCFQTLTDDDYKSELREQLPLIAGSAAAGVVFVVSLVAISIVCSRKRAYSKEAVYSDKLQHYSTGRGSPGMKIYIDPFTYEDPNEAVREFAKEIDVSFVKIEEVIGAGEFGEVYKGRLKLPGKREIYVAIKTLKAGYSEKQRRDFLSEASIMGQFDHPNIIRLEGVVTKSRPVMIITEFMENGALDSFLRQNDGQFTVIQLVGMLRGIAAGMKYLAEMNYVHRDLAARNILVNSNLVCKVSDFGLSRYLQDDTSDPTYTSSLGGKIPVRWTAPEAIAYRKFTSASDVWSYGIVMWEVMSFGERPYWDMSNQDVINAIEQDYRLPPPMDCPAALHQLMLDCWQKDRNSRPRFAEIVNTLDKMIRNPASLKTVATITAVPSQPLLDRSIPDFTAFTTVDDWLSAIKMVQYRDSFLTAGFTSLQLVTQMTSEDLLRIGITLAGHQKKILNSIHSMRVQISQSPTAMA
Chain of FGFR1 (P11362 whole entry, looked up): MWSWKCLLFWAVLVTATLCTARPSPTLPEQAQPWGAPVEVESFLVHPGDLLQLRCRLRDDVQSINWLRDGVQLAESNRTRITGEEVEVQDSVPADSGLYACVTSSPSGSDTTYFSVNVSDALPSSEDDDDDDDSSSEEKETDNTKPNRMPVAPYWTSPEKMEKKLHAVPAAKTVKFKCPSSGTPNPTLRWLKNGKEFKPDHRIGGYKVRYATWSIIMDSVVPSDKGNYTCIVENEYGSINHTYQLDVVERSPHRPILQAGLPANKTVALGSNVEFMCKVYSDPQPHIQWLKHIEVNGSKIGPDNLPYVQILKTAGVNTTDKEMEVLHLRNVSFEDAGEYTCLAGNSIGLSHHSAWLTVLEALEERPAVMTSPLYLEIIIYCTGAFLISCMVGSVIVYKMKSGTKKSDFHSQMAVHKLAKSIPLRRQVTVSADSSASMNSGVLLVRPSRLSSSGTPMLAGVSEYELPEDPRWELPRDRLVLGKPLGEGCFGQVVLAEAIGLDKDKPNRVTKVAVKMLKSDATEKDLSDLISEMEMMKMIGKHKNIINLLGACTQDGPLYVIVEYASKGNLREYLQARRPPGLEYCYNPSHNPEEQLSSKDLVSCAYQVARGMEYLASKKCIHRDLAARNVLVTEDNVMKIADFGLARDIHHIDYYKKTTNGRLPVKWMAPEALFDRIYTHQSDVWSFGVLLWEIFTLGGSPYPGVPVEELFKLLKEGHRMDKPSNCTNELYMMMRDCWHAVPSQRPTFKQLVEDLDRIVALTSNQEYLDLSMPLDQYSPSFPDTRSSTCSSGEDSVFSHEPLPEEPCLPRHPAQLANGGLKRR

Sequence	SH2 binding enrichment [14]	SH2 binding enrichment [15]	SH2 binding enrichment [16]	phosphorylation enrichment [1]	phosphorylation enrichment [2]	phosphorylation enrichment [3]	phosphorylation enrichment [4]	phosphorylation enrichment [5]	phosphorylation enrichment [6]	phosphorylation enrichment [7]	phosphorylation enrichment [8]	phosphorylation enrichment [9]	phosphorylation enrichment [10]	phosphorylation enrichment [11]	phosphorylation enrichment [12]	phosphorylation enrichment [13]
ETELPYQELQG [TYROBP_Y91_S89L]	0.727	0.504	0.84	1.58	0.535	0.58	1.65	1.5	0.997	1.18	0.737	0.941	1.02	0.566	0.872	2.5
NFRPGYNNFFN [USH2A_Y467_YF]	0.9	0.686	0.497	0.773	0.354	0.483	0.519	0.549	0.389	0.772	0.522	0.466	0.712	0.433	0.574	0.64
ENGPYYTSYPP [GDAP2_Y488]	0.761	0.708	0.763	1.31	0.658	1	2.7	1.89	0.707	0.83	3.58	2.14	0.703	5.54	1.33	3.52
VTQEQYELYCE [CBL_Y368]	1.04	0.577	0.625	1.75	0.814	0.71	0.622	0.894	0.887	1.32	0.684	0.989	1.17	0.571	0.883	0.892
PRQRRYVYYYS [PTEN_Y174_S170R]	0.909	0.839	0.413	1.05	0.656	1.02	0.753	0.929	0.904	0.683	0.882	0.911	0.979	0.877	0.769	0.728
RWQQLYDTLNA [EIF3M_Y351_Q346R]	0.827	0.695	0.338	1.32	1.95	2.02	0.574	0.848	3.35	1.45	5.67	7.68	2.43	6.56	0.788	3.71
KPVDTYFDSTR [DYNC2H1_Y2230_M2227V_YF]	0.83	0.693	0.422	0.925	0.668	0.556	0.624	0.73	0.472	0.997	0.567	0.565	0.723	0.54	0.611	0.43

The next lines start with results.

SH2 binding enrichment [14]	SH2 binding enrichment [15]	SH2 binding enrichment [16]	Sequence	phosphorylation enrichment [1]	phosphorylation enrichment [2]	phosphorylation enrichment [3]	phosphorylation enrichment [4]	phosphorylation enrichment [5]	phosphorylation enrichment [6]	phosphorylation enrichment [7]	phosphorylation enrichment [8]	phosphorylation enrichment [9]	phosphorylation enrichment [10]	phosphorylation enrichment [11]	phosphorylation enrichment [12]	phosphorylation enrichment [13]
0.757	0.721	0.531	LKMLVYLDMSK [LRRC7_Y234]	1.36	1.01	0.805	0.347	1.13	0.475	1.72	0.654	0.559	1.24	0.545	1.18	0.441
0.891	1.08	8.95	WFQTKYEELQV [KRT6B_Y360_I365V_YF]	0.915	0.462	0.525	0.478	0.564	0.459	0.94	0.359	0.442	0.788	0.305	0.712	0.329
1.22	1.84	10.3	TMKSHYMELYD [BBS2_Y644_R643H]	0.807	0.971	0.683	0.568	0.64	0.453	1.01	0.69	0.953	0.864	1.34	0.693	1.2
1.05	0.718	0.577	EEAAGYAQESQ [CAMKV_Y491]	1.22	0.523	0.543	0.545	0.691	0.547	1.39	0.401	0.661	1.2	0.325	0.935	0.604
0.847	0.46	0.957	QRIHDYFEHRF [HCN4_Y554_YF]	1.06	0.614	0.843	5.67	3.23	0.872	0.656	0.479	0.527	0.575	0.447	0.625	0.496
1.34	0.888	9.04	ARLEYYENEKK [IRS1_Y47]	1.08	0.686	0.506	0.592	0.733	0.491	1.01	0.595	0.482	0.849	0.571	0.808	0.528
0.87	0.494	0.513	TRSFDYTEGGD [FGF7_Y58_M59T_YF]	1.23	0.569	0.519	0.52	0.625	0.572	1.19	0.513	0.501	0.975	0.503	0.659	0.431
